Test results as given in article PMC9825189.

Biological target: Csx30 (purified, for ITC) (Candidatus 'Scalindua brodae')
Assay: ITC

Question: For “RpoE (purified, for ITC) (natural protein)”, which stoichiometry N is on record?
Answer: 1
